First the molecules themselves.
B1: Hu005-44-MMAE (antibody, human IgG1, DAR about 4.12, V domains shown)
VH: EVQLVESGGGLVKPGGSLRLSCAASGFTFNSYAMSWVRQTPGKGLEWVATISDAGSYTYYPDNEKGRFTISRDNAKNSLYLQMNSLRAEDTAIYYCVRGGYYYNLYAMDYWGQGTLVTVSS
VL: DIVLTQSPDSLAVSLGERATINCKASQSVSFPGTSLMHWYQQKPGQQPKLLIYRASNLEAGVPDRFSGSGSRTDFTLTISSLQAEDVAVYYCQQSREYPWTFGGGTKVEIK
modifications: vcMMAE on cysteines after TCEP reduction, positions not given
notes: Antibody-drug conjugate of Hu005-44 (human IgG1, Kappa) with vcMMAE
B2: Hu005-46-MMAE (antibody, human IgG1, DAR about 4.07, V domains shown)
VH: B1 VH with G44R
VL: B1 VL
modifications: vcMMAE on cysteines after TCEP reduction, positions not given
notes: Antibody-drug conjugate of Hu005-46 (human IgG1, Kappa) with vcMMAE
B3: mAb005c_v1 (antibody, IgG1, V domains shown)
VH: B1 VH with R19K, G42E, G44R, S78N, N84S, S85H, R87K, A88S, L116S
VL: DIVLTQSPASLAVSLGQRAIISCKASQSVSFPGTSLMHWYQQKPGQQPKLLIYRASNLEAGVPTRFSGSGSRTDFTLNIHPVEEDDTATYYCQQSREYPWTFGGGTQLEIK
notes: Chimeric mutant in hIgG1,k vector; the VH entry already holds the site-directed change; also called human-mouse chimeric antibody mutant of mAb005c; site-directed mutant of mAb005c
B4: Hu005-45 (antibody, V domains shown)
VH: B1 VH with G42E
VL: B1 VL
notes: Humanized
B5: mAb001c_v1 (antibody, IgG1, V domains shown)
VH: EVRLQQSGPVLVKPGASVKMSCKASGYTFTDYNLHWVKQSHRQSLEWIGYINPNHDATSYNQKFQGKATLTVDRSSSTAYMEFRSLTSEDSAVYYCARRVRTGTGLDDWGQGTTLTVSS
VL: DVLMTQSPLSLPVSLGDQASISCRSSHNIVHTNANTYLEWYLQKPGQSPKLLIYKVSNRFSGVPDRFSGSGSGTYFTLTISRVEAEDLGVYYCFQGSRFPYTFGGGTKLEIK
notes: Chimeric mutant in hIgG1,k vector; the entries already hold the site-directed changes; also called human-mouse chimeric antibody mutant of mAb001c; site-directed mutant of mAb001c
B6: mAb005 (antibody, IgG2b, V domains shown)
VH: B1 VH with R19K, G42E, G44R, A54G, S78N, N84S, S85H, R87K, A88S, L116S
VL: B3 VL
notes: Mouse monoclonal antibody, IgG2b/k
B7: mAb003 (antibody, IgG2c, V domains shown)
VH: EVQLVESGGGLVKPGGSLKLSCAASGFTFSSYAMSWVRQTPEKRLEWVATISDGGSYTYYPDSVKGRFTISRDNAKNNLYLQMSHLKSEDTDMYYCVRGGYYYNLYAMDYWGQGTSVTVSS
VL: B3 VL with P32A, T73A, T87A, R96G, Q107K
notes: Mouse monoclonal antibody, IgG2c/k
B8: mAb004 (antibody, IgG2b, V domains shown)
VH: EVQLVESGGGLVQPKGSLKLSCAASGFTFNTYAMHWVRQAPGKGLEWVARIRSKSSNFATYYADSVRDRFTISRDDSQSMLYLQMNNLKTEDTAMYYCVRGYGPSYFSLDYWGQGTSVTVSS
VL: DVVMTQTPLSLPVSLGDQASISCRSSQSLVHSNGNTYLHWYLQKPGQSPKLLIYKVSNRFSGVPDRFSGSGSGTDFTLKINRVEAEDLGVYFCSQSTHAIYTFGGGTKLEIK
notes: as for B6
B9: mAb001 (antibody, IgG2b, V domains shown)
VH: B5 VH with A57G
VL: B5 VL with A34G
notes: as for B6

Numbering of substitutions follows the chain as printed.

For the first test, the target named is T1, Extracellular domain of human ROR1 protein (ROR1-ECD) (human, UniProt Q01973 30-403).
T1 construct: Expressed in HEK293T cells; also called human ROR1-ECD; purified human ROR1 protein extracellular segment
T1 sequence (Q01973 other isoform, or with tags, fused parts or gaps): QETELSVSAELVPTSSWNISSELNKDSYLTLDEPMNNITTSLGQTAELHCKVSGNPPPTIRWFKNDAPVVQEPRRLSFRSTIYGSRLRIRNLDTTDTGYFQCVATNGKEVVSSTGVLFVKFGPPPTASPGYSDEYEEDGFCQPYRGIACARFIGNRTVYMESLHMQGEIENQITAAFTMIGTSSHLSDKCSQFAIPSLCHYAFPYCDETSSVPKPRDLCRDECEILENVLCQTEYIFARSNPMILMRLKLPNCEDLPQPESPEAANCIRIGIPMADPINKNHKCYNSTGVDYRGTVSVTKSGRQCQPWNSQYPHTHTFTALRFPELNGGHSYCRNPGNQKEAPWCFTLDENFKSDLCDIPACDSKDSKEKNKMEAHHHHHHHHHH
Kind of test: ELISA, plate-coated ROR1-ECD. On the technique in general: An ELISA detects its analyte on a solid surface through an enzyme-linked reagent.
On to B1, for which the binding result is listed as “binds”.
On the same count and under the same terms, the same measure for B2: “binds”.
A word on the EC50: it is the midpoint of the concentration-response curve. For the molecule B3, the EC50 came to 0.046 nM.
Turning to B4, the binding result is listed as “binds”.
Turning to B5, the EC50 amounted to 0.028 nM.

In a further test the target is T2, human ROR1 on the surface of tumor cells (human, UniProt Q01973 30-937).
T2 construct: whole, on cells; also called ROR1 on the cell surface; tumor cell ROR1
T2 sequence (Q01973 30-937): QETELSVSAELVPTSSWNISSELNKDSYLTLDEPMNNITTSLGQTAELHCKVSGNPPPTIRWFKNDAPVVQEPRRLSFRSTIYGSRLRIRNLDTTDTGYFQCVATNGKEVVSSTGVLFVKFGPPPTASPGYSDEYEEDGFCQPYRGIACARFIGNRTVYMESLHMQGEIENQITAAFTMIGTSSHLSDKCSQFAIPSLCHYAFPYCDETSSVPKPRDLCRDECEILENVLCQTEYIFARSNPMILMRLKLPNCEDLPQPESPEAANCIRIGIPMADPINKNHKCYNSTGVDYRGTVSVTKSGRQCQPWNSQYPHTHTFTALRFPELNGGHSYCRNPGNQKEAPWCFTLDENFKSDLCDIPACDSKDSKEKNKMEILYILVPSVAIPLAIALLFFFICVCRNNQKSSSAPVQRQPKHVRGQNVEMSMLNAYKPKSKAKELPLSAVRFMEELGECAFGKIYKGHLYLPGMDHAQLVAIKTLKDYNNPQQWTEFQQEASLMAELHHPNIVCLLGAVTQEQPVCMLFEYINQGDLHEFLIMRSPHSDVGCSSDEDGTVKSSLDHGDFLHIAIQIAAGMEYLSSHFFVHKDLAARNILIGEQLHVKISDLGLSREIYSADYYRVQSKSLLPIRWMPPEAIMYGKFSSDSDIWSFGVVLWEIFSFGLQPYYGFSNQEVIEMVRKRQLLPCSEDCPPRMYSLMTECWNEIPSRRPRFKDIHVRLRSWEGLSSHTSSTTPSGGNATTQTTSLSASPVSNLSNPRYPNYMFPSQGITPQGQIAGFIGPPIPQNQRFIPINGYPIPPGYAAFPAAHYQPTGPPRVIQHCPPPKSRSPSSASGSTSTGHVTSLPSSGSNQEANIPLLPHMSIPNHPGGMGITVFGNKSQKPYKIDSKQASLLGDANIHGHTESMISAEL
Kind of test: FACS, MDA-MB-231 cells. On the technique in general: Flow cytometry measures light scatter and fluorescence of single cells or particles in a stream.
With B1, the binding result is “binds”.
The same measure, in the same setting: the same measure for B2: “binds”.
Molecule B6 registered a 50% effective concentration (EC50) of 0.16 nM.
As to B3, the 50% effective concentration (EC50) is 0.067 nM.
B4: the binding result was “binds”.
Molecule B7 showed a half-maximal effective concentration (EC50) of 0.45 nM.
On the same count and under the same terms, under B8 stands 0.15 nM; under B9, 0.073 nM; under B5, 0.073 nM.

The target in the next test is T1, Extracellular domain of human ROR1 …. Kind of test: ELISA, purified ROR1-ECD.
Regarding B6, the response was half-maximal at 0.043 nM (EC50).
The molecule B7 showed an EC50 of 0.023 nM.
Still for that read-out and setting: under B8 stands 0.038 nM.
On the same count and under the same terms, under B9 stands 0.049 nM.

The record behind these values is patent EP4585616A1, “ANTIBODY CAPABLE OF SPECIFICALLY BINDING TO ROR1, […] THEREOF, AND PREPARATION METHOD THEREFOR AND USE THEREOF” (Hefei Institutes of Physical Science, Chinese Academy of …, priority 2022, dated 2024).
